In publication PMC7616425, “Transient Structural Properties of the Rho GDP-Dissociation Inhibitor” (Angewandte Chemie (International ed. in English), 2024):
Residue numbers refer to the chain shown, from its start.

B1: full-length RhoGDI1 (residues 1 to 204), bovine (natural protein, UniProt P19803 1-204, looked up)
chain: MAEQEPTAEQLAQIAAENEEDEHSVNYKPPAQKSIQEIQELDKDDESLRKYKEALLGRVAVSADPNVPNVVVTRLTLVCSTAPGPLELDLTGDLESFKKQSFVLKEGVEYRIKISFRVNREIVSGMKYIQHTYRKGVKIDKTDYMVGSYGPRAEEYEFLTPMEEAPKGMLARGSYNIKSRFTDDDRTDHLSWEWNLTIKKEWKD
modifications: triply labeled (2H, 13C, 15N) in the NMR samples
B2: Alexa647-labeled RhoGDI1 L56G (natural protein, bovine, UniProt P19803 1-204, looked up)
chain: B1 chain with L56G
modifications: Alexa647 acceptor (site not stated)
B3: Cy3-labeled, prenylated Cdc42 (natural protein)
chain: not shown
modifications: prenylated (residue not stated); Cy3 donor (site not stated)
notes: Cdc42, Rho family small GTPase

Assays:
[1] = molecular target: Cdc42, homogeneously geranylgeranylated in vitro (UniProt P60953 1-191, geranylgeranylated in vitro (residue not stated)); assay: cell-based or functional assay
[2] = molecular target: B2; assay: FRET or BRET; dissociation assay: 80 nM dual-labeled complex (Alexa647 on RhoGDI1, Cy3 on Cdc42) mixed with excess (5 μM) unlabeled GDI; mono-exponential fits; KD calculated from the measured dissociation rate constant and the association rate constant measured for wt (assumed for the mutants); settings: both partners purified
[3] = molecular target: T1, Alexa647-labeled RhoGDI1 (wt) (bovine, UniProt P19803 1-204, Alexa647 acceptor (site not stated)); assay: as above; settings: both partners purified
T1 construct: also called wildtype GDI; wt RhoGDI
T1 sequence (looked up): B1 chain

[4] = molecular target: T1, Alexa647-labeled RhoGDI1 (wt); assay: not stated; association rate constant determined independently for wildtype GDI (Figure S17); settings: both partners purified

Chain of Cdc42, homogeneously geranylgeranylated in vitro (P60953 whole entry): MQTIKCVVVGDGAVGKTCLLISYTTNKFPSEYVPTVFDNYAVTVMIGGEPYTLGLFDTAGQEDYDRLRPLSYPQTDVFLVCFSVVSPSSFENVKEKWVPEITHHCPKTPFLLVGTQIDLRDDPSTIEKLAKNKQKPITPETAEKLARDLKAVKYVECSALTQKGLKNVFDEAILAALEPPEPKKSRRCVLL

## B1
[1]
  inhibition of EDTA-induced Mant-GDP dissociation from prenylated Cdc42 with saturating (5 μM) RhoGDI, against free Cdc42: 83 fold

## B2
[1]
  acceleration of Mant-GDP dissociation from prenylated Cdc42 with 5 μM RhoGDI L56G, against wt RhoGDI: 5 fold

## B3
[2]
  Kd: 4 nM
  koff: 0.2 s⁻¹
[3]
  Kd: 0.09 nM
  koff: 0.0004 s⁻¹
[4]
  kon: 5e+06 M⁻¹ s⁻¹
